Test results reported in US20200325187A1 (Genentech, published 2020).
Positions count from the first letter of the chain named.

T1: hVEGF-A (8-109) (human, UniProt P15692 214-315)
T1 sequence (looked up): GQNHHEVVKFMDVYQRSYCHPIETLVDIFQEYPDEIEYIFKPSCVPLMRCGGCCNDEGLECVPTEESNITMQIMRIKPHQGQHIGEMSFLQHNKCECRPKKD

T2: LRP6 E1E2 protein (human, UniProt O75581 20-630, limits assumed)
T2 construct: domain: E1E2
T2 sequence (looked up): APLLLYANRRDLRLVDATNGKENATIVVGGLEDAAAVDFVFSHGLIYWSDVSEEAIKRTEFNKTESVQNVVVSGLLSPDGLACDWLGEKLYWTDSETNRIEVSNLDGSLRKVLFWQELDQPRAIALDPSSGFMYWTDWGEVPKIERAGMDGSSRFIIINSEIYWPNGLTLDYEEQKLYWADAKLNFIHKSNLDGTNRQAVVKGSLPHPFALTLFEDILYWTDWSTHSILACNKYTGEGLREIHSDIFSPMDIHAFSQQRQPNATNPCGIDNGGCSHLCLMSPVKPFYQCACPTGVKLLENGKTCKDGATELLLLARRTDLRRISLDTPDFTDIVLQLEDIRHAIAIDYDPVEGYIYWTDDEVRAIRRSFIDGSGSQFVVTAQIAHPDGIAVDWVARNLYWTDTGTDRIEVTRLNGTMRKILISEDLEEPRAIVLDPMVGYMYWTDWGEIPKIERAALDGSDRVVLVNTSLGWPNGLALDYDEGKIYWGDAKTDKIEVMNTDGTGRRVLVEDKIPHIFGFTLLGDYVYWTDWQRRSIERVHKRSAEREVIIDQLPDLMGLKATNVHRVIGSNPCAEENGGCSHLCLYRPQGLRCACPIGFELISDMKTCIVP

B1: VEGF_CKP9.54.51 (designed binder)
chain: GCNIMLPFWGCGWDQFCLAGCVCQYYQSCG
B2: VEGF_CKP9.54.87 (designed binder)
chain: B1 chain with W13Y, Q15L, F16Q
B3: VEGF_CKP9.L5.7 (designed binder)
chain: GCQLMQPFWGCKQDSDCLAGCVCRWYNSCG
B4: VEGF_CKP9.54.56 (designed binder)
chain: B1 chain with W13K, Q15F, F16H
B5: VEGF_CKP9.54.64 (designed binder)
chain: GCNIMLPFWGCSGDFACLAGCVCQYYQSCG
B6: VEGF_CKP9.54.69 (designed binder)
chain: GCNIMLPFWGCGKELNCLAGCVCQYYQSCG
B7: VEGF_CKP9.54.76 (designed binder)
chain: B1 chain with D14S, Q15M, F16D
B8: VEGF_CKP9.L5.43 (designed binder)
chain: B3 chain with N27H
B9: VEGF_CKP1 (designed binder)
chain: GCETDWYPHQIDCKQDSDCLAGCVCGPNGFCG
B10: VEGF_CKP3 (designed binder)
chain: GCHMMYDYCKQDSDCLAGCVCEMYDACG
B11: VEGF_CKP4 (designed binder)
chain: GCKKWQWWYMCKQDSDCLAGCVCYPWTECG
B12: VEGF_CKP5 (designed binder)
chain: GCPAIQNWKEHPCKQDSDCLAGCVCSWWPSLCG
B13: VEGF_CKP2 (designed binder)
chain: GCGETVFEQFLWCKQDSDCLAGCVCGPNGFCG
B14: EETI-II (peptide)
chain: GCPRILMRCKQDSDCLAGCVCGPNGFCG
notes: also called wild type EETI-II
B15: VEGF_CKP7.73 (designed binder)
chain: GCRDLTINWALFCKQDSDCLAGCVCQMFNSCG
B16: VEGF_CKP7.2 (designed binder)
chain: GCDDPSFDWSVYCKQDSDCLAGCVCRMYDSCG
B17: VEGF_CKP7.17 (designed binder)
chain: GCQDPTVNWAVYCKQDSDCLAGCVCQFYQSCG
B18: VEGF_CKP7.46 (designed binder)
chain: B17 chain with Q3E, N8D, V11Q, F27M
B19: VEGF_CKP7.43 (designed binder)
chain: B17 chain with V7L, V11T, F27M
B20: VEGF_CKP7.35 (designed binder)
chain: B17 chain with V7F, V11E, F27M
B21: VEGF_CKP7.57 (designed binder)
chain: B16 chain with D3L, D8N, V11L, R26Q
B22: VEGF_CKP7.19 (designed binder)
chain: B17 chain with V7F, V11E, F27L
B23: VEGF_CKP7.50 (designed binder)
chain: GCQDPSLNWADYCKQDSDCLAGCVCQMHQSCG
B24: VEGF_CKP7.24 (designed binder)
chain: GCWDPTFNWALYCKQDSDCLAGCVCQMYDSCG
B25: VEGF_CKP7.8 (designed binder)
chain: GCKNPLFNWALYCKQDSDCLAGCVCQLFDSCG
B26: VEGF_CKP7.54 (designed binder)
chain: B24 chain with W3L, P5R, F7L, D29N
B27: LRP6_CKP16 (designed binder)
chain: GCSRNSIKCKQDSDCLAGCVCASGSSCG
B28: LRP6_CKP14 (designed binder)
chain: GCGSNKIRPRCKQDSDCLAGCVCGPNDFCG
B29: LRP6_CKP10 (designed binder)
chain: GCASSNSIRQGWCKQDSDCLAGCVCGPKSNCG
B30: LRP6_CKP7 (designed binder)
chain: GCVSNRVNKGCKQDSDCLAGCVCGPNGFCG
B31: LRP6_CKP5 (designed binder)
chain: GCVNKIKGCKQDSDCLAGCVCGVEGRCG
B32: LRP6_CKP20 (designed binder)
chain: GCENRTKGCKQDSDCLAGCVCGFRGTCG
B33: LRP6_CKP8 (designed binder)
chain: GCRGNIIKCKQDSDCLAGCVCNESRGCG
B34: LRP6_CKP2 (designed binder)
chain: GCVNRVRGCKQDSDCLAGCVCSGGRDCG
B35: LRP6_CKP15 (designed binder)
chain: GCNRIRNSCKQDSDCLAGCVCGRGDYCG
B36: LRP6_CKP4 (designed binder)
chain: GCRSVNKICKQDSDCLAGCVCGSSRNCG
B37: LRP6_CKP9 (designed binder)
chain: GCRSGNTIRKRECKQDSDCLAGCVCGGPGGCG
B38: LRP6_CKP17 (designed binder)
chain: GCSNYVKRCKQDSDCLAGCVCSPGGRCG
B39: LRP6_CKP12 (designed binder)
chain: GCRSNKLREARGCKQDSDCLAGCVCGSRQDCG
B40: LRP6_CKP3 (designed binder)
chain: GCMNHVKARRCKQDSDCLAGCVCGPNGFCG
B41: LRP6_CKP11 (designed binder)
chain: GCRSNRIRCKQDSDCLAGCVCYGHGDCG
B42: LRP6_CKP21 (designed binder)
chain: GCGNKIRACKQDSDCLAGCVCRDRVGCG
B43: LRP6_CKP22 (designed binder)
chain: GCANRVKRTSCKQDSDCLAGCVCGPNGFCG
B44: LRP6_CKP1 (designed binder)
chain: GCRTNRVKGGCKQDSDCLAGCVCGPNGFCG
B45: LRP6_CKP18 (designed binder)
chain: B44 chain with T4A, K8S, G10R
B46: LRP6_CKP13 (designed binder)
chain: GCVNSVKRCKQDSDCLAGCVCSRGVNCG

molecular target: T1, hVEGF-A (8-109); experiment: spot phage ELISA
Experimental: (§1) After four rounds of binding selection, individual phage clones were picked and inoculated into 450 μl 2YT media containing 50 µg/ml Carbenecillin and M13-KO7 helper phage in 96-well blocks, which were grown at 37° C. overnight. […] The plates were washed and bound phage was detected with anti-M13-HRP followed by TMB substrate. In these assays, phage binding to BSA alone was tested in parallel to assess background binding. […] Positive clones were subjected to DNA sequence analysis.

Row | Binder | ELISA | S/N vs BSA
1 | B1 | 2.5 | 44.5
2 | B2 | 2.4 | 26.1
3 | B3 | 1.4 | 18.9
4 | B4 | 2.3 | 35.8
5 | B5 | 2.2 | 22.4
6 | B6 | 2.5 | 21.7
7 | B7 | 2.7 | 42.2
8 | B8 | 0.9 | 13.6
9 | B9 | 0.9 | 16.9
10 | B10 | 3.1 | 42.9
11 | B11 | 2.6 | 35.3
12 | B12 | 1.9 | 28.4
13 | B13 | 3.2 | 48.1
14 | B14 | 0.01 | 1.11

molecular target: T1, hVEGF-A (8-109); experiment: spot phage ELISA; remark: another data set of the same source
Experimental: as §1

Row | Binder | ELISA | S/N vs BSA
15 | B15 | 1.2 | 19.2
16 | B16 | 1.2 | 21.5
17 | B17 | 0.8 | 13.4
18 | B18 | 0.3 | 4.9
19 | B19 | 0.5 | 6.3
20 | B20 | 0.6 | 10.6
21 | B21 | 1 | 17.4
22 | B22 | 0.6 | 11.1
23 | B23 | 0.8 | 14.3
24 | B24 | 0.8 | 13.4
25 | B25 | 0.5 | 7.5
26 | B26 | 0.5 | 9.3

molecular target: T2, LRP6 E1E2 protein; experiment: spot phage ELISA; for ELISA: unit not given here

Row | Binder | ELISA | S/N vs BSA
27 | B27 | 3.36 | 31.1
28 | B28 | 3.18 | 43.5
29 | B29 | 3.29 | 37.4
30 | B30 | 3.3 | 29
31 | B31 | 3.04 | 35.7
32 | B32 | 3.1 | 38.7
33 | B33 | 3.23 | 37.6
34 | B34 | 3.41 | 41.6
35 | B35 | 2.03 | 26.3
36 | B36 | 2.82 | 25.4
37 | B37 | 2.97 | 37.6
38 | B38 | 3.09 | 35.9
39 | B39 | 0.6 | 6.78
40 | B40 | 2.93 | 40.2
41 | B41 | 2.65 | 36.8
42 | B42 | 2.8 | 33.7
43 | B43 | 3.43 | 42.9
44 | B44 | 3.23 | 45.5
45 | B45 | 1.67 | 18.3
46 | B46 | 3.28 | 37.8
